Assay results published in patent publication EP1506972A1 (Genentech Inc., dated 2005).
Where a chain is given by its changes, count along the chain named.

Columns and labels:
Test in all cases: competitive phage ELISA, soluble IGFBP-1 vs coated IGFBP-1
[1] = target: T1, IGF-I L14A (G1S-A70V background) displayed on phage (human; bacteriophage M13)
T1 construct: not shown: M13 gene III fragment (residues 249-406, display carrier) and the IGF-g3 junction
T1 chain: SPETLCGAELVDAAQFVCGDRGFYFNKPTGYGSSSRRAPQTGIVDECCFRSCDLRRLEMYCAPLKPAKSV

[2] = target: T2, IGF-I R56A (G1S-A70V background) displayed on phage (human; bacteriophage M13)
T2 construct: not shown: M13 gene III fragment (residues 249-406), the display partner, and its junction to IGF-I
T2 chain: T1 chain with A14L, R56A

[3] = target: T3, IGF-I G30A (G1S-A70V background) displayed on phage (human; bacteriophage M13)
T3 construct: not shown: Display carrier: M13 gene III protein fragment (residues 249-406) and the junction to it
T3 chain: T1 chain with A14L, G30A

[4] = target: T4, IGF-I T29A (G1S-A70V background) displayed on phage (human; bacteriophage M13)
T4 construct: not shown: Display carrier: M13 gene III protein fragment (residues 249-406) and the junction to it
T4 chain: T1 chain with A14L, T29A

[5] = target: T5, IGF-I G7A (G1S-A70V background) displayed on phage (human; bacteriophage M13)
T5 construct: not shown: M13 gene III fragment (residues 249-406, display carrier) and the IGF-g3 junction
T5 chain: T1 chain with G7A, A14L

[6] = target: T6, IGF-I E9A (G1S-A70V background) displayed on phage (human; bacteriophage M13)
T6 construct: not shown: M13 gene III fragment (residues 249-406, display carrier) and the IGF-g3 junction
T6 chain: T1 chain with E9A, A14L

[7] = target: T7, IGF-I E58A (G1S-A70V background) displayed on phage (human; bacteriophage M13)
T7 construct: not shown: M13 gene III fragment (residues 249-406), the display partner, and its junction to IGF-I
T7 chain: T1 chain with A14L, E58A

[8] = target: T8, IGF-I P66A (G1S-A70V background) displayed on phage (human; bacteriophage M13)
T8 construct: not shown: Display carrier: M13 gene III protein fragment (residues 249-406) and its junction to Val70

[9] = target: T9, IGF-I P2A (G1S-A70V background) displayed on phage (human; bacteriophage M13)
T9 construct: range 249-406

[10] = target: T10, IGF-I K65A (G1S-A70V background) displayed on phage (human; bacteriophage M13)
T10 construct: not shown: M13 gene III fragment (residues 249-406), the display partner, and its junction to IGF-I
T10 chain: T1 chain with A14L, K65A

[11] = target: T11, IGF-I Q15A (G1S-A70V background) displayed on phage (human; bacteriophage M13)
T11 construct: not shown: M13 gene III fragment (residues 249-406, display carrier) and the IGF-g3 junction
T11 chain: T1 chain with A14L, Q15A

[12] = target: T12, IGF-I V70A (single mutant of G1S-A70V) displayed on phage (human; bacteriophage M13)
T12 construct: not shown: Display carrier: M13 gene III protein fragment (residues 249-406) and its junction to residue 70

[13] = target: T13, IGF-I E3A (G1S-A70V background) displayed on phage (human; bacteriophage M13)
T13 construct: not shown: Display carrier: M13 gene III protein fragment (residues 249-406) and its junction to Val70

[14] = target: T14, IGF-I S51A (G1S-A70V background) displayed on phage (human; bacteriophage M13)
T14 construct: not shown: Display carrier: M13 gene III protein fragment (residues 249-406) and the junction to it
T14 chain: T1 chain with A14L, S51A

[15] = target: T15, IGF-I E46A (G1S-A70V background) displayed on phage (human; bacteriophage M13)
T15 construct: not shown: Display carrier: M13 gene III protein fragment (residues 249-406) and the junction to it
T15 chain: T1 chain with A14L, E46A

[16] = target: T16, IGF-I D45A (G1S-A70V background) displayed on phage (human; bacteriophage M13)
T16 construct: not shown: Display carrier: M13 gene III protein fragment (residues 249-406) and the junction to it
T16 chain: T1 chain with A14L, D45A

[17] = target: T17, des(1-2)-IGF-I displayed on phage (human; bacteriophage M13)
T17 construct: range 249-406; Lacks positions 1 and 2

[18] = target: T18, IGF-I S1A (G1S-A70V background) displayed on phage (human; bacteriophage M13)
T18 construct: range 249-406; the result is Ala 1

[19] = target: T19, IGF-I R50A (G1S-A70V background) displayed on phage (human; bacteriophage M13)
T19 construct: not shown: Display carrier: M13 gene III protein fragment (residues 249-406) and the junction to it
T19 chain: T1 chain with A14L, R50A

relative IC50 (IC50mut/IC50 G1S-A70V) [1]: 4.5 fold | relative IC50 (IC50mut/IC50 G1S-A70V) [2]: 1.6 fold | relative IC50 (IC50mut/IC50 G1S-A70V) [3]: 0.9 fold | relative IC50 (IC50mut/IC50 G1S-A70V) [4]: 0.9 fold | relative IC50 (IC50mut/IC50 G1S-A70V) [5]: > 100 fold | relative IC50 (IC50mut/IC50 G1S-A70V) [6]: 1 fold | relative IC50 (IC50mut/IC50 G1S-A70V) [7]: 1.5 fold | relative IC50 (IC50mut/IC50 G1S-A70V) [8]: 1.1 fold | relative IC50 (IC50mut/IC50 G1S-A70V) [9]: 1.3 fold | relative IC50 (IC50mut/IC50 G1S-A70V) [10]: 1.5 fold | relative IC50 (IC50mut/IC50 G1S-A70V) [11]: 1.7 fold | relative IC50 (IC50mut/IC50 G1S-A70V) [12]: 2.3 fold | relative IC50 (IC50mut/IC50 G1S-A70V) [13]: 33.9 fold | relative IC50 (IC50mut/IC50 G1S-A70V) [14]: 1.6 fold | relative IC50 (IC50mut/IC50 G1S-A70V) [15]: 1 fold | relative IC50 (IC50mut/IC50 G1S-A70V) [16]: 0.6 fold | relative IC50 (IC50mut/IC50 G1S-A70V) [17]: 0.6 fold | relative IC50 (IC50mut/IC50 G1S-A70V) [18]: 0.6 fold | relative IC50 (IC50mut/IC50 G1S-A70V) [19]: 2 fold
B1: human IGFBP-1 (other, UniProt P08833 26-259, looked up)
chain: APWQCAPCSAEKLALCPPVSASCSEVTRSAGCGCCPMCALPLGAACGVATARCARGLSCRALPGEQQPLHALTRGQGACVQESDASAPHAAEAGSPESPESTEITEEELLDNFHLMAPSEEDHSILWDAISTYDGSKALHVTNIKKWKEPCRIELYRVVESLAKAQETSGEEISKFYLPNCNKNGFYHSRQCETSMDGEAGLCWCVYPWNGKRIPGSPEIRGDPNCQIYFNVQN
notes: Secreted recombinant protein
